Values quoted from earlier work, collected in publication PMC6275225.

Target: LFA-3 (Homo sapiens) (UniProt P19256)
Sequence of UniProt P19256 (P19256 29-215): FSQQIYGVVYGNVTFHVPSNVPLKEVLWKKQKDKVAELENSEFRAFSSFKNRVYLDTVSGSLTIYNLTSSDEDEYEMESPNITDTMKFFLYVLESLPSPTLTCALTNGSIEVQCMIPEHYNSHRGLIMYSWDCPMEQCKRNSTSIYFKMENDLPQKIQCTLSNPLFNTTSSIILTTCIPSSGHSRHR

- Kd: 15 µM
Substance: CD2 (from UniProt P06729)
